US20250352667A1
Substitutions are numbered along the chain they refer to. Numbers in names are those of the source. Each block holds one binder with its values, some of them ahead of it.

What was measured:
[1] = biological target: KEAP1 (wild-type full-length), His-tagged (human) (UniProt Q14145); test: AlphaScreen; 307.2 nM FLAG-NRF2, 150 nM His-KEAP1; Rep 1; control for I28V
[2] = biological target: KEAP1 (wild-type full-length), His-tagged (human) (UniProt Q14145); test: AlphaScreen; 153.6 nM FLAG-NRF2, 150 nM His-KEAP1; Rep 1; control for I86V
[3] = biological target: KEAP1 (wild-type full-length), His-tagged (human) (UniProt Q14145); test: AlphaScreen; NRF2 wt isoform 1 19.2 nM, KEAP1 150 nM; set as the 100 % reference for I86V
[4] = biological target: KEAP1 (wild-type full-length), His-tagged (human) (UniProt Q14145); test: AlphaScreen; FLAG-NRF2 wt isoform 1 9.6 nM, His-KEAP1 150 nM; Rep 1; positive control for Q75R
[5] = biological target: KEAP1 (wild-type full-length), His-tagged (human) (UniProt Q14145); test: AlphaScreen, all variants on one plate; average of three conditions, KEAP1 150 nM; the reference itself
[6] = biological target: KEAP1 (wild-type full-length), His-tagged (human) (UniProt Q14145); test: AlphaScreen; FLAG-NRF2 I86V 4.8 nM, His-KEAP1 150 nM; Rep 2
[7] = biological target: KEAP1 (wild-type full-length), His-tagged (human) (UniProt Q14145); test: AlphaScreen; NRF2 I86V 153.6 nM, KEAP1 150 nM; signal against NRF2-only control
[8] = biological target: KEAP1 (wild-type full-length), His-tagged (human) (UniProt Q14145); test: AlphaScreen; FLAG-NRF2 Q75R 614.4 nM, His-KEAP1 150 nM; Rep 1
[9] = biological target: KEAP1 (wild-type full-length), His-tagged (human) (UniProt Q14145); test: AlphaScreen; NRF2 Q75R 38.4 nM, KEAP1 150 nM; relative to wild-type NRF2 isoform 1 (100 %)
[10] = biological target: KEAP1 (wild-type full-length), His-tagged (human) (UniProt Q14145); test: AlphaScreen; 614.4 nM FLAG-NRF2, 150 nM His-KEAP1; Rep 2

Chain of KEAP1 (wild-type full-length), His-tagged (human) (Q14145 2-624 limits assumed): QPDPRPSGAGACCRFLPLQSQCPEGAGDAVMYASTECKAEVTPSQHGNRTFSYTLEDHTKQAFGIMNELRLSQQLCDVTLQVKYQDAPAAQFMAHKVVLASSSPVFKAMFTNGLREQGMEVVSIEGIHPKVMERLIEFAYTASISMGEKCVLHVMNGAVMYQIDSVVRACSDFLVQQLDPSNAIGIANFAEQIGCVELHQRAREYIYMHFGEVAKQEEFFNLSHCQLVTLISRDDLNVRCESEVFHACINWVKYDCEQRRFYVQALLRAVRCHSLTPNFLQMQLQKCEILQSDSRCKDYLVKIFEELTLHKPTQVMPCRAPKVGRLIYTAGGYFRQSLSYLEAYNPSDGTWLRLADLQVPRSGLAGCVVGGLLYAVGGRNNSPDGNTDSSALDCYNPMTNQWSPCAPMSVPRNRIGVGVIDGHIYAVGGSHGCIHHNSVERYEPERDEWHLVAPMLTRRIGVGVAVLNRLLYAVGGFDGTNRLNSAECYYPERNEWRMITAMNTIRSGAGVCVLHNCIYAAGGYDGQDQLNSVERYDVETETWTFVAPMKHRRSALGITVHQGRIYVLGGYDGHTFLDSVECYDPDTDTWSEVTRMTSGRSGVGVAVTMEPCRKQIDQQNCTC

B2: NRF2 isoform 1 (I86V full-length), FLAG-tagged (protein)
chain: MMDLELPPPGLPSQQDMDLIDILWRQDIDLGVSREVFDFSQRRKEYELEKQKKLEKERQEQLQKEQEKAFFAQLQLDEETGEFLPVQPAQHIQSETSGSANYSQVAHIPKSDALYFDDCMQLLAQTFPFVDDNEVSSATFQSLVPDIPGHIESPVFIATNQAQSPETSVAQVAPVDLDGMQQDIEQVWEELLSIPELQCLNIENDKLVETTMVPSPEAKLTEVDNYHFYSSIPSMEKEVGNCSPHFLNAFEDSFSSILSTEDPNQLTVNSLNSDATVNTDFGDEFYSAFIAEPSISNSMPSPATLSHSLSELLNGPIDVSDLSLCKAFNQNHPESTAEFNDSDSGISLNTSPSVASPEHSVESSSYGDTLLGLSDSEVEELDSAPGSVKQNGPKTPVHSSGDMVQPLSPSQGQSTHVHDAQCENTPEKELPVSPGHRKTPFTKDKHSSRLEAHLTRDELRAKALHIPFPVEKIINLPVVDFNEMMSKEQFNEAQLALIRDIRRRGKNKVAAQNCRKRKLENIVELEQDLDHLKDEKEKLLKEKGENDKSLHLLKKQLSTLYLEVFSMLRDEDGKPYSPSEYSLQQTRDGNVFLVPKSKKPDVKKN
A-counts (NRF2 plus KEAP1) [6]: 2110 A-counts
S/N [7]: 2

B3: NRF2 isoform 1 (Q75R full-length), FLAG-tagged (protein)
chain: B2 chain with Q75R, V86I
A-counts (NRF2 plus KEAP1) [8]: 855 A-counts
Binding Percentage [9]: 73.4%

Next, values leading:

A-counts [1]: 1850 A-counts
A-counts [2]: 3060 A-counts
Binding Percentage [3]: 100%
A-counts (NRF2 plus KEAP1) [4]: 1024 A-counts
% Disruption in Binding (Reported Values) [5]: 0%
B1: NRF2 isoform 1 (wild-type full-length), FLAG-tagged (protein)
chain: B2 chain with V86I

A-counts [10]: 1210 A-counts
B4: NRF2 isoform 1 (I28V full-length), FLAG-tagged (protein)
chain: B2 chain with I28V, V86I
